According to patent publication US20180312539A1, “METHODS FOR PREPARING HIGH THROUGHPUT PEPTIDOMIMETICS, ORALLY BIOAVAILABLE DRUGS AND COMPOSITIONS CONTAINING SAME” (University of Southern California, priority 2011, published 2018):
“And” between values parts separate entries of the source, which are not always exact repeats. Identical values can stand only once. Each block holds one compound with its values, some of them ahead of it. *1 amine or outer side, *2 acyl side, *3 side chain or, on linkers, in order; H or OH if unused. Where a SMILES comes first, the peptide text is derived from it. Bridges are numbered along the chain shown (N, C = ends). Where no end group is shown, it is not given here. [ ]: non-standard residue; d: D form. The star is where a group is joined. 5FAM = O=C1OC2(c3ccc(O)cc3Oc3cc(O)ccc32)c2ccc(C(=O)*)cc21; Biotin = O=C1N[C@H]2[C@H](CS[C@H]2CCCCC(=O)*)N1; NMeW = CN[C@@H](Cc1c[nH]c2ccccc12)C(=O)O; Glutaryl = O=C(CCCC(=O)[*:2])[*:1]; NMeNva = CCC[C@H](NC)C(=O)O; NMeA = CN[C@@H](C)C(=O)O

Columns and labels:
[1] = set-up: species or system C57BL6 mice; conditions: mouse, in vivo
Experimental: The following peptides were synthesized for oral administration: […](FAM) (SEQ ID NO: 14), […](FAM)DK(Palmitoleic acid) (SEQ ID NO: 15), and […](FAM) (SEQ ID NO: 16), wherein FAM is a lysine derivative containing fluorescein. All peptides were cyclized from the side chain to lysine to the N-terminus as previously described. Anesthetized C57BL6 mice had peptide administered at a dose of 10 mg/kg by oral gavage. After administration, mice were removed from isoflurane. At various time points, blood samples were taken by orbital bleeding as previously described. Peaks were normalized to a 15 minute time point from mice that had peptide administered by IV injection.
The following peptides were synthesized for oral administration: […](FAM) (SEQ ID NO: 14), […](FAM) (SEQ ID NO: 16), […](FAM)DK(biotin) (SEQ ID NO: 38), and […](FAM)DK(Palmitoleic acid) (SEQ ID NO: 15). All peptides were cyclized from the side chain to lysine to the N-terminus as previously described in Millward, S. W. et al. (2007) ACS Chem. Biol. 2:625. Anesthetized C57BL6 mice had peptide administered at a dose of 10 mgs/Kg by oral gavage. After administration, mice were removed from isoflurane. At various time points, blood samples were taken by orbital bleeding as previously described. Peaks were normalized to a 20 minute time point from mice that had peptide administered by IV injection. Area under the curve was analyzed by Graphpad 5.0.
In addition to accessing intracellular targets in cell culture, deriving a simple modification that would facilitate oral bioavailability of peptidic ligands would be greatly beneficial for therapeutic development. Intestinal absorption of both fatty acids and biotin is nearly 100% efficient. Zempleni, J. and Mock, D. M. (1999) The American Journal of Clinical Nutrition 69:504. […] Applicants synthesized a protease resistant peptide with the sequence […]-mod (designated SUPR peptide) (SEQ ID NO: 50), where A is N-methyl alanine, the peptide is cyclized from lysine to the N-terminus, and K(mod) is lysine with a modified sidechain including either biotin or palmitoleic acid. Palmitoleic acid is a monounsaturated fatty acid chosen for its ability to bind human serum albumin, and its low melting point allowing for more favorable solubility of conjugated peptides as compared to […] fatty acid conjugates. This peptide was administered to mice at a dose of 10 mg/kg by oral gavage. At various time points, blood was taken from the mice by orbital bleeding. After processing, fluorescence was quantified and compared to the maximum signal obtained by IV injection of peptide at the same dose.

[2] = PAMPA (parallel artificial membrane permeability assay); assay type: in vitro ADME; conditions: for Log Pe of peptide (biotinylated): biotin-labeled peptide (number + B), non-reducible biotin; for Log Pe of peptide (biotinylated) / Log Pe of peptide: PBS pH 7.4, 24 hrs; for Log Pe of peptide: unmodified peptide, room temperature; for Log Pe: peptide conjugated to biotin containing a reducible disulfide (RB), acceptor well reducing (10 mM DTT)
Experimental: PAMPA assays were set up following manufacturer's instructions. Briefly, 1% phosphatidyl choline (Sigma) was dissolved in dodecane (Sigma) at 65° C. for 3 min. The membrane was applied to each well as per manufacturer's instructions. […] 100 μL of sample was put into each donor well. The acceptor wells contained 300 μL of a 5% DMSO in PBS solution. Passive diffusion was allowed to occur at room temperature for 24 hrs. […] Absorbance at 215 nm was monitored. The area under the peptide peak was integrated.
The acceptor well contained 10 mM DTT as a reducing agent. Data was collected after 6, 12 and 24 hrs. Absorbance at 280 nm was analyzed. The following formula was used to calculate Log Pe: […]
Applicants employed a parallel artificial membrane permeability assay (PAMPA) that will allow for the rapid screening of peptide passive diffusion across a phospholipid bilayer. (Schmidt, et al. (2003) J. Millipore Corporation Application Note AN1729EN00.). In this assay, two chambers are separated by a phospholipid bilayer supported on an inert membrane. Applicants chose to initially focus Applicants examination on peptide ligands developed to bind with high affinity to the heterotrimeric G-proteins Gαi1*GDP and Gα12*GDP. Ja, W. W., et al. (2004) Biochemistry 43:9265; Millward, S. W., et al. (2007) ACS Chem. Biol. 2:625; Fiacco, S. et al. (2008) ChemBioChem 9:2200. These ligands included variations in sequence, size, overall charge, and polarity as well as comparing linear and cyclic peptides, end and biotinylation. […] According to classical methods of increasing permeability. Pinski, C. A., et al. (2001) Advanced Drug Delivery Reviews 46:3. Applicants postulated that the removal of hydrogen bond donors by N-methylation should further increase the permeability of this peptide.

chymotrypsin = biological target: T1, chymotrypsin (Bos taurus, UniProt P00766); experiment: Protease resistance experiment, chymotrypsin digest; assay type: in vitro ADME
T1 construct: purchased Sigma
Experimental: Immobilized chymotrypsin and proteinase K purchased from Sigma.
Protease resistance enhancement was then tested.
Towards that end, three peptides were synthesized. […] The effects were dramatic and surprising.

proteinase K = proteinase K (Parengyodontium album, UniProt P06873); conditions: immobilized proteinase K, 4° C; for Cyc t1/2: cyclic peptide; for Lin t1/2: linear peptide
Chain of proteinase K (P06873 106-384): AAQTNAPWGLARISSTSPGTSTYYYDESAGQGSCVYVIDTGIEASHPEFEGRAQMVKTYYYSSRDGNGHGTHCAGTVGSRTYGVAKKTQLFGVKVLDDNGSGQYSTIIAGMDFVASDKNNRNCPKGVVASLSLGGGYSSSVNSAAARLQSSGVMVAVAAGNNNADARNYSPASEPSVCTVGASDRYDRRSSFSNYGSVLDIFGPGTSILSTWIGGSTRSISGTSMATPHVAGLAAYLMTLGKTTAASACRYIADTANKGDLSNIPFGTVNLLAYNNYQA
Experimental: Immobilized chymotrypsin and proteinase K purchased from Sigma. 250 nmoles of peptide in DMSO were added to 50 mM sodium phosphate buffer (pH=8.0) with a final DMSO concentration of 2%. […] The graph was generated by fitting the data to a one phase exponential decay equation (GraphPad Prism 5.0).
Protease resistance enhancement was then tested. The simplest solution for enhancing protease resistance would be the removal of amino acids recognized by protease K and chymotrypsin.
Next the role of each of the N-methyl alanines was analyzed independently. […] For example sequence modifications, including N-methylation would be accomplished one amino acid at a time, walking the peptide from low protease stability to high stability. Whether this is a viable approach for making a peptide like SUPR was investigated. Towards that end, Applicants walked back from SUPR peptide to something closer to cycGIBP, and to determine if there was a gradual decrease in protease resistance. Towards that end, three peptides were synthesized. Two of them contained only one NMA (alanine was substituted for NMA), and the other had no NMA. It was hypothesized that if one could walk back to cycGIBP, then one would expect the loss of a single N-methyl to have some effect on reducing protease resistance, but to still be better than cycGIBP.

Human serum digests = assay type: in vitro ADME; conditions: reconstituted human serum, 37° C
Experimental: (§1) Delipidated/lyophilized human serum was purchased from Thermo Scientific and reconstituted as per manufacturer's instructions. 250 nmoles of peptide in 50 μLs of sodium phosphate buffer (pH=8.0) with 10% DMSO was added to 1 mL of reconstituted serum and incubated at 37° C. 100 μL aliquots were taken at various time points and quenched in 300 μLs of acetonitrile. Samples were spun down and decanted to remove precipitate followed by dilution in water to 1.5 mLs. Samples were then analyzed by HPLC as described in the protease resistance experiment.
as §1, with “μL” for “μLs”, “mLs.” for “mLs. Samples were then analyzed by HPLC as described in the protease resistance experiment.”
The human serum and human microsome stability of the Gαi1 binding SUPR peptide ([…] (SEQ ID NO: 7)) were compared to the peptides ability to bind to Her-2. Beginning with the human serum analysis, peptides were digested with 95% human serum at 37° C. Analysis was performed by HPLC. […] Therefore, intact peptide is only completely unmodified peptide. Digestions of SUPR, HMP, and PMP are show have lives very similar to SUPR. Digestion of PMP2 is in progress. Without being bound by theory, Applicants theorize that the fitting for HMP may have produced an artificially low half-life.

[3] = cited from earlier work

bioavailability ([1]; 10 mg/kg): 9.4%
time of maximal uptake ([1]; po): 3 h
oral uptake efficiency ([1]; po, 10 mg/kg): 6.4%
Compound: CSCC[C@@H]1NC(=O)CCCC(=O)NCCCC[C@@H](C(=O)N[C@@H](CCCCNC(=O)c2ccc3c(c2)C(=O)OC32c3ccc(O)cc3Oc3cc(O)ccc32)C(=O)N[C@H](CCCCNC(=O)CCCC[C@@H]2SC[C@@H]3NC(=O)N[C@@H]32)C(=O)O)NC(=O)[C@H](CO)NC(=O)[C@H](Cc2c[nH]c3ccccc23)NC(=O)[C@H](CCC(N)=O)NC(=O)[C@H](C)N(C)C(=O)[C@H](Cc2ccc(O)cc2)NC(=O)[C@H](CCC(=O)O)NC(=O)[C@H](Cc2ccc(O)cc2)NC(=O)[C@H](C)N(C)C(=O)[C@H](Cc2ccc(O)cc2)NC(=O)[C@H](Cc2ccccc2)NC1=O [biotinylated peptide] (MFY[NMeA]YEY[NMeA]QWSKK(5FAM)[dK](Biotin)-OH; linker N-12 via Glutaryl; C-terminus assumed)

Compound: NNNNNDKLY(N-MeW)WEFL (Biotin-NNNNNDKLY[NMeW]WEFL) [Peptide 6]
Log Pe of peptide (biotinylated) [2]: −6.6 ± −0.1
Log Pe of peptide [2]: >−9.0

Compound: (N-MeNva)ITWYEFVAGTK ([NMeNva]ITWYEFVAGTK(Biotin)-NH2; N-terminus assumed; SMILES CCC[C@H](NC)C(=O)N[C@H](C(=O)N[C@H](C(=O)N[C@@H](Cc1c[nH]c2ccccc12)C(=O)N[C@@H](Cc1ccc(O)cc1)C(=O)N[C@@H](CCC(=O)O)C(=O)N[C@@H](Cc1ccccc1)C(=O)N[C@H](C(=O)N[C@@H](C)C(=O)NCC(=O)N[C@H](C(=O)N[C@@H](CCCCNC(=O)CCCC[C@@H]1SC[C@@H]2NC(=O)N[C@@H]21)C(N)=O)[C@@H](C)O)C(C)C)[C@@H](C)O)[C@@H](C)CC) [Peptide 9]
Log Pe of peptide (biotinylated) [2]: −7.4 ± −0.1
Log Pe of peptide [2]: −7.0 ± −0.1

Compound: MITWYEFVAGTK [Peptide 7]
Log Pe of peptide (biotinylated) [2]: −6.6 ± −0.1
Log Pe of peptide [2]: −7.8 ± −0.1

Compound: MFYAYEYAQWSK
Cyc t1/2 (chymotrypsin): <12 s
Lin t1/2 (chymotrypsin): <12 s
Cyc t1/2 (proteinase K): <12 s
Lin t1/2 (proteinase K): <12 s

half-life (Human serum digests): ~504 s
Compound: CC[C@H](C)[C@H](NC(=O)[C@@H](N)CCSC)C(=O)N[C@H](C(=O)N[C@@H](Cc1c[nH]c2ccccc12)C(=O)N[C@@H](Cc1ccc(O)cc1)C(=O)N[C@@H](CCC(=O)O)C(=O)N[C@@H](Cc1ccccc1)C(=O)N[C@H](C(=O)N[C@@H](C)C(=O)NCC(=O)N[C@H](C(=O)N[C@@H](CCCCN)C(N)=O)[C@@H](C)O)C(C)C)[C@@H](C)O [linGIBP, reference compound] (H-MITWYEFVAGTK-NH2)

half-life (Human serum digests): 972 s
Compound: CSCC[C@H](N)C(=O)N[C@@H](Cc1ccccc1)C(=O)N[C@@H](Cc1ccc(O)cc1)C(=O)N(C)[C@@H](C)C(=O)N[C@@H](Cc1ccc(O)cc1)C(=O)N[C@@H](CCC(=O)O)C(=O)N[C@@H](Cc1ccc(O)cc1)C(=O)N(C)[C@@H](C)C(=O)N[C@@H](CCC(N)=O)C(=O)N[C@@H](Cc1c[nH]c2ccccc12)C(=O)N[C@@H](CO)C(=O)N[C@@H](CCCCN)C(N)=O [linSUPR]

Compound: O=C(O)CCCC[C@@H]1SC[C@@H]2NC(=O)N[C@@H]21 [biotin]
intestinal absorption efficiency ([3]; Zempleni and Mock (1999)): ~100%
oral bioavailability ([3]; as known in the field): ~100%

Compound: MSQTKRLDDQLYWWEYL (Biotin-MSQTKRLDDQLYWWEYL) [Peptide 10]
Log Pe of peptide (biotinylated) [2]: −6.2 and −6.2 ± −0.0
Log Pe [2]: −4.8
fold increase in peptide delivery ([2]; reducible vs nonlabile biotin conjugate): 16 fold
Log Pe of peptide [2]: −8.4 ± −0.1

Compound: MITWYEFVAGTK [reference compound]
Cyc t1/2 (chymotrypsin): 126 s
Lin t1/2 (chymotrypsin): 19.8 s
Cyc t1/2 (proteinase K): 60 s
Lin t1/2 (proteinase K): <12 s

Compound: MRLVWIVRSRHFGPRLRMAK (MRLVWIVRSRHFGPRLRMAK(Biotin)-NH2; N-terminus assumed; SMILES CC[C@H](C)[C@H](NC(=O)[C@H](Cc1c[nH]c2ccccc12)NC(=O)[C@@H](NC(=O)[C@H](CC(C)C)NC(=O)[C@H](CCCNC(=N)N)NC(=O)[C@@H](N)CCSC)C(C)C)C(=O)N[C@H](C(=O)N[C@@H](CCCNC(=N)N)C(=O)N[C@@H](CO)C(=O)N[C@@H](CCCNC(=N)N)C(=O)N[C@@H](Cc1c[nH]cn1)C(=O)N[C@@H](Cc1ccccc1)C(=O)NCC(=O)N1CCC[C@H]1C(=O)N[C@@H](CCCNC(=N)N)C(=O)N[C@@H](CC(C)C)C(=O)N[C@@H](CCCNC(=N)N)C(=O)N[C@@H](CCSC)C(=O)N[C@@H](C)C(=O)N[C@@H](CCCCNC(=O)CCCC[C@@H]1SC[C@@H]2NC(=O)N[C@@H]21)C(N)=O)C(C)C) [Peptide 11]
Log Pe of peptide (biotinylated) [2]: −6.0 ± −0.1

Compound: Cyclo-MITWYEFVAGTK (not fully specified (C-terminus, bridges); printed as Cyclo-MITWYEFVAGTK; also: cyclized, ring closure not given here) [Peptide 8]
Log Pe of peptide (biotinylated) [2]: −6.5 and −6.5 ± −0.0
Log Pe [2]: −5.9
Log Pe of peptide [2]: −8.2 ± −0.2
